Results reported in US20240124857A1, “COMPOSITION FOR GUT HEALTH” (DUPONT NUTRITION BIOSCIENCES APS, priority 2021, published 2024).
Blank lines part the entries; values can stand above or below the molecule they belong to.

Experiments:
[1] = ATPase activity at 0.05 ppm enzyme on 0.1 mM ATP (absorbance 620 nm); format: biochemical; conditions: for Activity on ATP (absorbance at 620 nm, blank subtracted), pH 5.0: 50 mM IVIES buffer pH 5; for Activity on ATP (absorbance at 620 nm, blank subtracted), pH 6.0: 50 mM IVIES buffer pH 6
Experimental: Enzyme activity towards ATP or ADP at pH 3 to 9: The ability of candidate enzymes to degrade ATP or ADP to AMP and free phosphate (Pi) was measured using a standard malachite green phosphate detection kit (Sigma Aldrich cat no. MAK307). The enzyme reactions were carried out in 96-well plates with a total volume of 150 μL and contained 250 μM of a substrate, 50 mM of a buffer, 5 mM CaCl2, and a variable concentration of enzyme. The substrate was ATP or ADP. The buffer was glycine (pH 3), acetate (pH 4, 4.5, 5), bis-Tris (pH 5.5, 6, 6.5), or Tris (pH 7, 8, 9). The concentration of enzyme varied from about 1 μg/mL to 1 ng/mL and was adjusted based on the activity of the enzyme so that the amount of phosphate released during the assay was with the dynamic range of the assay (5-100 μM phosphate). The enzyme concentration was determined by the absorbance at 280 nm and using the predicted molecular weight and molar extinction coefficient to calculate the concentration. The enzyme reaction was initiated by the addition of 15 μL enzyme with 135 μL of the other reaction components such that the final reaction composition was as previously described. The reaction was stopped after 5 min by mixing 80 μL of the reaction mixture with 20 μL of the malachite green working reagent. The malachite green working reagent was prepared according to the manufacturer's protocol by mixing 100 parts reagent A with 1 part reagent B. Phosphate standard solutions (0-80 μM) and a negative control reaction without enzyme were also mixed with the malachite green working reagent. All samples were tested in duplicate. The malachite green reaction mixture was allowed to rest at room temperature for 45-60 min and the absorbance at 620 nm was measured. Lastly, the absorbance of the phosphate standards were used to convert the absorbance readings of each sample into phosphate concentrations and the negative control was subtracted from each reaction.
Enzymes of interest were assayed against ATP substrate. The ATPase activity was measured at 0.05 ppm concentration in 50 mM IVIES buffer pH 6 and pH 5 with 0.1 mM ATP as substrate as described in Example 1. Commercial potato apyrase was used as reference. The absorbance at 620 nm was measured and the absorbance of a blank sample (water) was subtracted from each sample.

[2] = pH profile of enzymes on 1 mM ATP; format: biochemical; conditions: 50 mM trisodium citrate/citric acid, 5 mM CaCl2, relative to the highest value
Experimental: The pH profile of additional enzymes of interest was assayed using 1 mM ATP, in 50 mM trisodium citrate/citric acid buffer with 5 mM CaCl2. Absorbance was read at 620 nm and all values were set relative to the highest one. Commercial potato apyrase was used as reference. […]

B1: CRC22383: GDA1/CD39 family enzyme, accession WP_058475114.1, SEQ ID NO:11 (protein, listed as Legionella quateirensis)
chain: ADNPCTNHQCIAVIDAGSTGSRLHVFSYDVDETRSPININEIWNKKIKPGFATIEPNSNTIDAYLTTLLSGAPNQQIPVYFYATAGMRLLPVSKQKKYYDELQHWFSQQSQWQLVEAKTITGNDEALYDWLSVNYHLGTLQKSLNQSVGVMDMGGASVQIVFPIQKNSELNTRSQVELDLYGQHYTLYVQSFLGLGQTEVAHQFLNSAPCFSNDYPLPDGESGQGNASACEQEVSRLMTEVHKVNNVIQPLLAANPVDSWYSIGGISNLADSSLFHFENSKLTNQNLLQQADSQVCHQQWDSLNSQFPDDEYVYQYCLFSAYYYALMVDGYGIVPDQSINYIPPAQNLDWTMGVVLHH
Activity on ATP (absorbance at 620 nm, blank subtracted), pH 5.0 [1]: 0.07
Activity on ATP (absorbance at 620 nm, blank subtracted), pH 6.0 [1]: 0.10

B2: CRC22386: GDA1/CD39 family enzyme, accession WP_173236575.1, SEQ ID NO:12 (protein, listed as Legionella antarctica)
chain: GTVSCNEHQCIAVIDAGSTGSRIHVYAYDMDETNTPVHINEVWTKKIKPGFATIEPNYESIEAYLVTLLSGAPNQDIPVYFYATAGMRLLPASKQKLYYQELQRWFSQQHQWRLIDAKTITGNEEALYDWLSVNYHLDTLKSIQNKSVGVMDMGGASVQIVFPIQKNEEINSNSQVELDLYGHHVNLYVHSFLGLGQTEMSHQFLNSVSCFANDYPLPDGESGRGNAPSCKQEVSSLMNGVHGVNKTIQPVLTANPVDTWFAIGGLTNLADNKLFHFENGELTNQNLMQQADSQICHQQWDKLNSEFPNDDYVYEYCLLSAYYYALMVDGYGIYPEQTVNYVSSALNLDWTKGVVLHH
Activity on ATP (absorbance at 620 nm, blank subtracted), pH 5.0 [1]: 0.36
Activity on ATP (absorbance at 620 nm, blank subtracted), pH 6.0 [1]: 0.25
Relative activity on ATP, pH 3 [2]: 0.0
Relative activity on ATP, pH 3.5 [2]: 0.0
Relative activity on ATP, pH 4 [2]: 0.0
Relative activity on ATP, pH 4.5 [2]: 0.0
Relative activity on ATP, pH 5 [2]: 0.2
Relative activity on ATP, pH 5.5 [2]: 0.6
Relative activity on ATP, pH 6 [2]: 0.8
Relative activity on ATP, pH 6.5 [2]: 1.0

B3: CRC22112: GDA1/CD39 family enzyme, accession KTD66016.1, SEQ ID NO:10 (protein, listed as Legionella santicrucis)
chain: ESAECTEHQCMAVVDAGSTGSRAHIFAYDLDETNTPSQIHEIWSKKIKPGLATIEANQDTIDAYLTILFSGAPKQNIPVYFYATGGMRLIPQTKQKLYYKEIQNWFNQQSIWQLIEAKTITGNDEALYDWLAVNYHIGTLKSSTTEPIGVMDIGGASVQIAFPIPKDVETNKSSQVELDLYGKHLNLFVHSFLGLGQNEVTHQLLDTNSCFSEGYPLPGGNLGQGDAVICQQEVSSLINRVHKVQSEVQPTLATNRITMWYAIGGLTNLVESEPFQFQNNQITNQDLLQQANSLICHQQWEGLSTQFPDNEYIESFCLLPAFYYALMIDGYGISVTQPVKYISPRENLDWTTGVVLHH
Activity on ATP (absorbance at 620 nm, blank subtracted), pH 5.0 [1]: 0.04
Activity on ATP (absorbance at 620 nm, blank subtracted), pH 6.0 [1]: 0.06

B7: CRC22387: GDA1/CD39 family enzyme, accession WP_127099836.1, SEQ ID NO:13 (protein, listed as Legionella sp.)
chain: QSSPCEKQQCIAIVDAGSTGSRLHIYAYDLDVTKTPIHIKELWNKKITPGFARIEANTNTIDSYLTILLADSPIKKIPIYFYATAGMRLLPQMKQKKYYDELSSWFKKHSEWQLVEAKTITGNEEGLYDWLSVNYHLGNFESPTNKSIGVMDMGGASVQIVFPIAETPTINDKSQIQVNLYGRHYNLYVHSFLGLGQTEMSHQFLNSASCFVNNYPLPDGAEGQGNALSCEQEVSSLMNQVHGVNQLIQPLLAANPVDSWYSIGGISNLADSQFFNFQHSQLTNQDLLEQADSQICHQQWEDINNQYPDDDYVYQYCLFSAYYYALMVDGYGLYPEQTINYLPPQQNIDWTTGVVLHQQR
Activity on ATP (absorbance at 620 nm, blank subtracted), pH 5.0 [1]: 0.36
Activity on ATP (absorbance at 620 nm, blank subtracted), pH 6.0 [1]: 0.11
Relative activity on ATP, pH 3 [2]: 0.1
Relative activity on ATP, pH 3.5 [2]: 0.0
Relative activity on ATP, pH 4 [2]: 0.0
Relative activity on ATP, pH 4.5 [2]: 0.1
Relative activity on ATP, pH 5 [2]: 0.3
Relative activity on ATP, pH 5.5 [2]: 0.5
Relative activity on ATP, pH 6 [2]: 1.0
Relative activity on ATP, pH 6.5 [2]: 1.0

Further lines, with some results ahead:

Activity on ATP (absorbance at 620 nm, blank subtracted), pH 5.0 [1]: 0.43
Activity on ATP (absorbance at 620 nm, blank subtracted), pH 6.0 [1]: 0.21
B4: CRC22606: GDA1/CD39 family enzyme, accession OQW93475.1, SEQ ID NO:15 (protein, listed as Beggiatoa sp.)
chain: ETNGPAACHIVYDAGSSGTRLYIYEQQDKAWLEHEGPKVSALADPVREIRGKHWKDAESVTIEVVSALDSIKQDGPVKGDKPAWKAFDWTKHCQIKSAGVYATAGMRLAEQANKERSVTLWASLKQKLAAKLGPTVDIEARTLTGYEEGLYAWLAVREQQPDDSFAIAEMGGASAQITFPCAKCDENDPDTKTVQLSGKHLQIYSYSFLGLGQDEASHSLGFPTSCANGIGTQQSGWKAQDCANQIQLTGSKGIRDPYDFDGEQRGAHEQPPIAQADSNRWFLTGAFNYMNASNIETYCLKDPKLSEEESFCFRSIYPEKYLETLKIPVNSPKMNVSWTQGAVICKANSCLEAATKTPPLCRWLDKGCLP
Relative activity on ATP, pH 3 [2]: 0.0
Relative activity on ATP, pH 3.5 [2]: 0.0
Relative activity on ATP, pH 4 [2]: 0.0
Relative activity on ATP, pH 4.5 [2]: 0.3
Relative activity on ATP, pH 5 [2]: 0.6
Relative activity on ATP, pH 5.5 [2]: 0.8
Relative activity on ATP, pH 6 [2]: 0.9
Relative activity on ATP, pH 6.5 [2]: 1.0

Activity on ATP (absorbance at 620 nm, blank subtracted), pH 5.0 [1]: 0.93
Activity on ATP (absorbance at 620 nm, blank subtracted), pH 6.0 [1]: 0.65
B5: CRC25082: Acid phosphatase (Class A), accession WP_050460978.1, SEQ ID NO:19 (protein, listed as Herbaspirillum autotrophicum)
chain: KGAAGFLNGQTAPDSLAILPPPPAEDSVAFQADKAQYETGHVLRDPERVEQARQDADYRNFGHAFSAAFGMEISATHTPVLYQLLTEVLQDSHDYAMKAAKNHYKRVRPFVVYKDPTCTPGQDEKMALSGSYPSGHASFGWAAALVLAEINPARQTEILQRGYAFGKSRVICGAHWQSDVDNGQLMGAAVVAALHSNSQFAAALNAAKNEFAGLRAQDNKK
Relative activity on ATP, pH 3 [2]: 0.0
Relative activity on ATP, pH 3.5 [2]: 0.0
Relative activity on ATP, pH 4 [2]: 0.0
Relative activity on ATP, pH 4.5 [2]: 0.1
Relative activity on ATP, pH 5 [2]: 0.3
Relative activity on ATP, pH 5.5 [2]: 0.7
Relative activity on ATP, pH 6 [2]: 1.0
Relative activity on ATP, pH 6.5 [2]: 0.8

Activity on ATP (absorbance at 620 nm, blank subtracted), pH 5.0 [1]: 0.50
Activity on ATP (absorbance at 620 nm, blank subtracted), pH 6.0 [1]: 0.28
B6: CRC22605: GDA1/CD39 family enzyme, accession WP_133471262.1, SEQ ID NO:14 (protein, listed as Paraglaciecola sp.)
chain: QSKKPCYIVYDAGSSGTRLYIYEQLGANLISHEGPKVSALADPIRYTHGKDLSDLDTITNEVASALDLIKLDGPLEEGKPKWSGFDWSKQCEAQSVKVFATAGMRIAEQINPADSLVLWQTLASKINAKVGHNIKVEARTLTGFEEGLFAWLSVKDVYPSGHYGMVEMGGASSQITFPCPQCSLANDAVKTVTVDGKPIQIYSYSYLGLGQNEAPYSLPFGVAGQVPKSCSYGVGANNPDWTIASCAVEIPITAKGSNTDIIDPYNYTKTGTKGTTNTLPAAHKNIPKWLLMGAFNYAKETDIDDFCFNQHDGYYNAFTACFNPIYLDKYLKTLNIQAEQSSKVDVSWTQGAVICQIENCLATITPPPVCRWMKSGCLAY
Relative activity on ATP, pH 3 [2]: 0.0
Relative activity on ATP, pH 3.5 [2]: 0.0
Relative activity on ATP, pH 4 [2]: 0.0
Relative activity on ATP, pH 4.5 [2]: 0.0
Relative activity on ATP, pH 5 [2]: 0.4
Relative activity on ATP, pH 5.5 [2]: 0.8
Relative activity on ATP, pH 6 [2]: 1.0
Relative activity on ATP, pH 6.5 [2]: 1.0

Activity on ATP (absorbance at 620 nm, blank subtracted), pH 5.0 [1]: 0.13
Activity on ATP (absorbance at 620 nm, blank subtracted), pH 6.0 [1]: 0.22
B8: CRC22620: GDA1/CD39 family enzyme, accession NBS62745.1, SEQ ID NO:16 (protein, listed as Betaproteobacteria sp.)
chain: EDAARYLAVIDAGSSGSRLHLYERTAAERSVAVKQLFEAKAGEALSSFERSPGDAGPRGIQPLLEQLLDRLALLNIERSAVHVHVLATAGMRRLDADNPAAAQVIYQSVRHTLSSAGVTARRIETLSGHLEGVYAWVDVNDLSGALASTPAGATVAVIEVGGASAQLAYSGEALAGAPVTAVRLNGRSHQVVSLTWLGLGQDEARRAMLNAARSRSNADEEHCYPDNRKAAGGLSAFDADGSRHLVARGRFSFEQCSEMYDAVIRPFDLPPLATAIRQSRRPLVGLASVYFSLADWQVIGQPGTLASTLRGQCEGEDAYGDKVIGFIRRDPKNRFAQTACANGTFIHALLFGPAGLRVDPAQVSAVARINGQPPSWARGFALLGR
Relative activity on ATP, pH 3 [2]: 0.0
Relative activity on ATP, pH 3.5 [2]: 0.0
Relative activity on ATP, pH 4 [2]: 0.0
Relative activity on ATP, pH 4.5 [2]: 0.1
Relative activity on ATP, pH 5 [2]: 0.4
Relative activity on ATP, pH 5.5 [2]: 0.7
Relative activity on ATP, pH 6 [2]: 1.0
Relative activity on ATP, pH 6.5 [2]: 0.8
